Target: the molecule itself
Test: immunoprecipitation, non-reducing SDS-PAGE and Western blot; culture supernatants of confluent melanoma cell lines immunoprecipitated with H3 mAb, SDS-10% PAGE under non-reducing condition, blot with HRP-coupled H3 mAb

B1: soluble form of CD160 (sCD160) released by melanoma cell lines (natural protein, UniProt O95971 25-159, looked up)
chain: GCINITSSASQEGTRLNLICTVWHKKEEAEGFVVFLCKDRSGDCSPETSLKQLRLKRDPGIDGVGEISSQLMFTISQVTPLHSGTYQCCARSQKSGIRLQGHFFSILFTETGNYTVTGLKQRQHLEFSHNEGTLS
notes: soluble form of CD160, derived from the CD160-GPI isoform, released by human melanoma cell lines; recovered as a 55-kDa species called dimeric sCD160; also called secreted sCD160; sCD160 produced by WM1361; source: endogenous, culture supernatant of melanoma cell lines (WM1361, COLO829, SKMEL5)
- stoichiometry N: 2
